Values belong to the binder of their own block, whether it stands above or below them.
Assays:
[1] = molecular target: T1, FLT3 with internal tandem duplication (FLT3-ITD) (human, UniProt P36888 27-543); experiment: cell-based or functional assay
T1 sequence (looked up): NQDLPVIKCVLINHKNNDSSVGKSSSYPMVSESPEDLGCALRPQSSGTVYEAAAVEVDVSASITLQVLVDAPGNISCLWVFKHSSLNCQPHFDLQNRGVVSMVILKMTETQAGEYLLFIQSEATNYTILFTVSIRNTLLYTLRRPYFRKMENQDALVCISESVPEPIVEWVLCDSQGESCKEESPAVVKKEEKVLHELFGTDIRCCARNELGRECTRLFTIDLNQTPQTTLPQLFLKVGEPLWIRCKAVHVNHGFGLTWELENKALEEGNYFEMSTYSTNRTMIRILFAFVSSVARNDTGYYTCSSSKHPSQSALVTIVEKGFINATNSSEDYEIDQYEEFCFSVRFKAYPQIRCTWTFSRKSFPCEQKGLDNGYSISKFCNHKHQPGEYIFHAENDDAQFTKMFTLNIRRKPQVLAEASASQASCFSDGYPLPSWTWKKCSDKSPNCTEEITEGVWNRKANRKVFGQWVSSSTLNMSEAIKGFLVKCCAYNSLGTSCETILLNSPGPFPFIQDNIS

[2] = molecular target: T2, FMS-like tyrosine kinase 3 (FLT3), wild-type (human, UniProt P36888 27-993); experiment: flow cytometry, staining of THP-1 cells (FLT3 wild-type)
T2 construct: whole, on cells; also called CD135; wt FLT3
T2 sequence (looked up): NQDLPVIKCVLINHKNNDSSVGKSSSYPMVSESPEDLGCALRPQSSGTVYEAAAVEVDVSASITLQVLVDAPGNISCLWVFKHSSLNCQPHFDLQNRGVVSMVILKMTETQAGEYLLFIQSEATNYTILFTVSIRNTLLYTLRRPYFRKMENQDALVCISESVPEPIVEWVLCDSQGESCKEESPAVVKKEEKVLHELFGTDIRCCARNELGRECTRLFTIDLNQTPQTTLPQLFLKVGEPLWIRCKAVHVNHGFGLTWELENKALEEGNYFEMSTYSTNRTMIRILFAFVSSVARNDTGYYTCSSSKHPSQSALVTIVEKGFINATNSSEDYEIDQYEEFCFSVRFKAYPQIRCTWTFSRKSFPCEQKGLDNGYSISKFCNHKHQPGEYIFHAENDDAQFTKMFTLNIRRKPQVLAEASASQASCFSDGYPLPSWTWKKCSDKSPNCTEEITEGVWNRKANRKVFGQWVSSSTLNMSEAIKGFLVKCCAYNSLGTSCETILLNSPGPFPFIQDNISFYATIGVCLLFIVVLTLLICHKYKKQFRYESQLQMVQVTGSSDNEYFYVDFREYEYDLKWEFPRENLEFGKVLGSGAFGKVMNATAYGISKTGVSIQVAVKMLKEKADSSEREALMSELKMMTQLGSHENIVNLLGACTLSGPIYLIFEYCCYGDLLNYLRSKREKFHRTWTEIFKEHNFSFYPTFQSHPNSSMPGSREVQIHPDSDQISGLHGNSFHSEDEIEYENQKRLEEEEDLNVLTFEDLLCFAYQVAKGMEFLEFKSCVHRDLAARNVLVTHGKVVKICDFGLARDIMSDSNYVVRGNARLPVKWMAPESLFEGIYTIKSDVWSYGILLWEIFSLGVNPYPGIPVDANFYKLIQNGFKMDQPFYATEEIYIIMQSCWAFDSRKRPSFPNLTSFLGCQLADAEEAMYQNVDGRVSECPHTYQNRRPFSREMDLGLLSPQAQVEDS
From the text: (a) Flow cytometric analysis of FLT3 expression on AML cell lines (MOLM-13, THP-1, MV4;11) and primary AML blasts (pt #1 and #2).

IFN-γ production, CAR-T vs MOLM-13^native [1]: 1480 pg/mL
IFN-γ production, MOLM-13^creno against MOLM-13^native [1]: 1.6 fold
IFN-γ production, MOLM-13^mido against MOLM-13^native [1]: 2.1 fold
IFN-γ production, MOLM-13^quiza against MOLM-13^native [1]: 1.2 fold
IL-2 production, MOLM-13^creno against MOLM-13^native [1]: 2 fold
IL-2 production, MOLM-13^mido against MOLM-13^native [1]: 6.6 fold
IL-2 production, MOLM-13^quiza against MOLM-13^native [1]: 1.9 fold
increase in cytolytic activity, MOLM-13^creno against MOLM-13^native, 2.5:1 E:T [1]: 1.8 fold
increase in cytolytic activity, MOLM-13^creno against MOLM-13^native, 5:1 E:T [1]: 1.6 fold
increase in cytolytic activity, MOLM-13^mido against MOLM-13^native, 2.5:1 E:T [1]: 1.6 fold
increase in cytolytic activity, MOLM-13^mido against MOLM-13^native, 5:1 E:T [1]: 1.3 fold
increase in cytolytic activity, MOLM-13^quiza against MOLM-13^native, 2.5:1 E:T [1]: 3.8 fold
increase in cytolytic activity, MOLM-13^quiza against MOLM-13^native, 5:1 E:T [1]: 1.6 fold
proliferation index, MOLM-13^creno against MOLM-13^native [1]: 1.3 fold
proliferation index, MOLM-13^mido against MOLM-13^native [1]: 1.8 fold
proliferation index, MOLM-13^quiza against MOLM-13^native [1]: 1.2 fold
B1: BV10 FLT3 CAR (other)
chain: QVQLKQSGPGLVQPSQSLSITCTVSGFSLTNYGLHWVRQSPGKGLEWLGVIWSGGSTDYNAAFISRLSISKDNSKSQVFFKMNSLQADDTAIYYCARKGGIYYANHYYAMDYWGQGTSVTVSSGGGGSGGGGSGGGGSDIVMTQSPSSLSVSAGEKVTMSCKSSQSLLNSGNQKNYMAWYQQKPGQPPKLLIYGASTRESGVPDRFTGSGSGTDFTLTISSVQAEDLAVYYCQNDHSYPLTFGAGTKLELKRESKYGPPCPPCPMFWVLVVVGGVLACYSLLVTVAFIIFWVRSKRSRGGHSDYMNMTPRRPGPTRKHYQPYAPPRDFAAYRSRVKFSRSADAPAYQQGQNQLYNELNLGRREEYDVLDKRRGRDPEMGGKPRRKNPQEGLYNELQKDKMAEAYSEIGMKGERRRGKGHDGLYQGLSTATKDTYDALHMQALPPR

ADCC, percentage of MV4;11 cells eliminated, crenolanib pre-treatment against none [1]: 3 fold
ADCC, percentage of MV4;11 cells eliminated, midostaurin pre-treatment against none [1]: 2 fold
ADCC, percentage of MV4;11 cells eliminated, quizartinib pre-treatment against none [1]: 3.5 fold
B2: anti-FLT3 BV10 mAb (Biolegend) (antibody, V domains shown)
VH: QVQLKQSGPGLVQPSQSLSITCTVSGFSLTNYGLHWVRQSPGKGLEWLGVIWSGGSTDYNAAFISRLSISKDNSKSQVFFKMNSLQADDTAIYYCARKGGIYYANHYYAMDYWGQGTSVTVSS
VL: DIVMTQSPSSLSVSAGEKVTMSCKSSQSLLNSGNQKNYMAWYQQKPGQPPKLLIYGASTRESGVPDRFTGSGSGTDFTLTISSVQAEDLAVYYCQNDHSYPLTFGAGTKLELKR

binding result [2]: binds
B3: mouse-anti-human-FLT3 mAb (clone 4G8, BD Pharmagin, BD Biosciences) (antibody, V domains shown)
VH: QVQLQQPGAELVKPGASLKLSCKSSGYTFTSYWMHWVRQRPGHGLEWIGEIDPSDSYKDYNQKFKDKATLTVDRSSNTAYMHLSSLTSDDSAVYYCARAITTTPFDFWGQGTTLTVSS
VL: DIVLTQSPATLSVTPGDSVSLSCRASQSISNNLHWYQQKSHESPRLLIKYASQSISGIPSRFSGSGSGTDFTLSINSVETEDFGVYFCQQSNTWPYTFGGGTKLEIKR
notes: Bought, fluorochrome-conjugated mouse antibody, used with a mouse IgG1 isotype control; also called anti-FLT3 mAb (4G8); anti-FLT3 4G8 mAb

% proliferation, CAR-T vs MOLM-13^native [1]: 31.3%
IFN-γ production, MOLM-13^creno against MOLM-13^native [1]: 1.4 fold
IFN-γ production, MOLM-13^mido against MOLM-13^native [1]: 2.3 fold
IFN-γ production, MOLM-13^quiza against MOLM-13^native [1]: 1.4 fold
IL-2 production, MOLM-13^creno against MOLM-13^native [1]: 3.9 fold
IL-2 production, MOLM-13^mido against MOLM-13^native [1]: 12.4 fold
IL-2 production, MOLM-13^quiza against MOLM-13^native [1]: 1.9 fold
increase in cytolytic activity, MOLM-13^creno against MOLM-13^native, 2.5:1 E:T [1]: 2.5 fold
increase in cytolytic activity, MOLM-13^creno against MOLM-13^native, 5:1 E:T [1]: 2 fold
increase in cytolytic activity, MOLM-13^mido against MOLM-13^native, 2.5:1 E:T [1]: 1.5 fold
increase in cytolytic activity, MOLM-13^mido against MOLM-13^native, 5:1 E:T [1]: 1.4 fold
increase in cytolytic activity, MOLM-13^quiza against MOLM-13^native, 2.5:1 E:T [1]: 17.7 fold
increase in cytolytic activity, MOLM-13^quiza against MOLM-13^native, 5:1 E:T [1]: 1.6 fold
proliferation index, MOLM-13^mido against MOLM-13^native [1]: 1.8 fold
B4: 4G8 FLT3 CAR (other)
chain: QVQLQQPGAELVKPGASLKLSCKSSGYTFTSYWMHWVRQRPGHGLEWIGEIDPSDSYKDYNQKFKDKATLTVDRSSNTAYMHLSSLTSDDSAVYYCARAITTTPFDFWGQGTTLTVSSGGGGSGGGGSGGGGSDIVLTQSPATLSVTPGDSVSLSCRASQSISNNLHWYQQKSHESPRLLIKYASQSISGIPSRFSGSGSGTDFTLSINSVETEDFGVYFCQQSNTWPYTFGGGTKLEIKRESKYGPPCPPCPMFWVLVVVGGVLACYSLLVTVAFIIFWVRSKRSRGGHSDYMNMTPRRPGPTRKHYQPYAPPRDFAAYRSRVKFSRSADAPAYQQGQNQLYNELNLGRREEYDVLDKRRGRDPEMGGKPRRKNPQEGLYNELQKDKMAEAYSEIGMKGERRRGKGHDGLYQGLSTATKDTYDALHMQALPPR
